Results published in patent publication US9163048B2, “Multi-functional nucleic acid-based anti-cancer drug capable of targeting and therapy, method for preparing same and anti-cancer composition comprising same” (RESEARCH & BUSINESS FOUNDATION SUNGKYUNKWAN UNIVERSITY, priority 2011, dated 2015).

B1: linear nucleic acid (nucleic acid)
chain 1: GCTACGAGTAGGTACGGATCTGGCTGTACTGATGTGCCTGCGAC
chain 2: GTCGCAGGCACATCAGTACAGCCAGATCCGTACCTACTCG
modifications: chemistry not given here

Assays:
[1] = test system: prostate cancer cells (LNCaP cell line); test: Anticancer effect, acridine orange / propidium iodide staining, confocal microscope; format: cell-based; settings: 2 hours treatment, 24 hours culture, NIR radiation 10 minutes, 10 μM contained doxorubicin
Procedure: In addition, after the cells were treated with 10 μM (concentration of the contained doxorubicin) of the multifunctional nucleic-acid-based anticancer drug for 2 hours, the medium was exchanged with a fresh RPMI 1640 medium to remove the multifunctional nucleic-acid-based anticancer drug remaining at an outside of the cells, and the cells were cultured for 24 hours. Afterward, the cells were irradiated with […] for 10 minutes, and stained with acridine orange and propidium iodide (PI). As a control group, instead of the multifunctional nucleic-acid-based anticancer drug, a test was performed using phosphate buffered saline, doxorubicin, gold nanoparticles, an A10 aptamer and an anticancer-drug-captured nucleic acid structure.
This means that the multifunctional nucleic-acid-based anticancer drug can kill cells more effectively by applying both doxorubicin (chemotherapy) and an exothermic effect (thermal treatment).

[2] = Capture of doxorubicin in linear nucleic acid, autofluorescence of unbound doxorubicin in supernatant; format: physicochemical; settings: per 1 μM linear nucleic acid (SEQ ID NOs 1 and 2); room temperature, 24 hours
Source text: A supernatant was retrieved, and autofluorescence of the doxorubicin not binding to the linear nucleic acid was detected using a molecular device (SpectraMax M2 Microplate Reader).

Row | Molecule | cell death (PI staining, red fluorescence) [1] | maximum doxorubicin bound per 1 μM linear nucleic acid [2] [µM]
1 | COc1cccc2c1C(=O)c1c(O)c3c(c(O)c1C2=O)C[C@@](O)(C(=O)CO)C[C@@H]3O[C@H]1C[C@H](N)[C@H](O)[C@H](C)O1 [doxorubicin, reference compound] | dead cells stained with PI were observed | 
2 | B1 | red fluorescence was hardly observed | 10
